Laboratory results: US20150301024

Molecular target: hXkr8-GFP (wild-type human Xkr8 fused to GFP at its C-terminus)

Protein	cleavage of the GFP-fusion protein, Western blot with anti-GFP
recombinant human caspase 3 (protein) SGISLDNSYKMDYPEMGLCIIINNKNFHKSTGMTSRSGTDVDAANLRETFRNLKYEVRNKNDLTREEIVELMRDVSKEDHSKRSSFVCVLLSHGEEGIIFGTNGPVDLKKITNFFRGDRCRSLTGKPKLFIIQACRGTELDCGIETDSGVDDDMACHKIPVEADFLYAYSTAPGYYSWRNSKDGSWFIQSLCAMLKQYADKLEFMHILTRVNRKVATEFESFSFDATFHAKKQIPCIVSMLTKELYFYH	caspase 3 and caspase 7 cleaved the wild-type but not 2DA mutant hXkr8
recombinant human caspase 7 (protein) AKPDRSSFVPSLFSKKKKNVTMRSIKTTRDRVPTYQYNMNFEKLGKCIIINNKNFDKVTGMGVRNGTDKDAEALFKCFRSLGFDVIVYNDCSCAKMQDLLKKASEEDHTNAACFACILLSHGEENVIYGKDGVTPIKDLTAHFRGDRCKTLLEKPKLFFIQACRGTELDDGIQADSGPINDTDANPRYKIPVEADFLFAYSTVPGYYSWRSPGRGSWFVQALCSILEEHGKDLEIMQILTRVNDRVARHFESQSDDPHFHEKKQIPCVVSMLTKELYFSQ	caspase 3 and caspase 7 cleaved the wild-type but not 2DA mutant hXkr8
